# Where a chain is given by its changes, count along the chain named.
# B1: hSM-05A: full-length humanized anti-γc antibody derived from SM-05A by framework patching (antibody, V domains shown)
# VH: QVQLVQSGAEVLKPGASVKVSCKASGYTFTEYTMHWVKQARGQRLEWIGGIDPYNGGATYNQRFKGKATLTTDTSTSTAYMELRNLRSDDTAVYYCARRRLYYGNALDYWGQGTLVTVSS
# VL: DIVMTQSPLSLPVTPGEQASISCRSSQSLVHSNGNTYLHWYLQKPGQSPQLLIYKVSSRFSGVPDRFSGSGSGTDFTLKISRVEAEDVGVYFCSQTTHVPFTFGSGTKLEIKR
# B2: hSM-05E: full-length humanized anti-γc antibody derived from SM-05E by framework patching (antibody, V domains shown)
# VH: B1 VH with Y54N, N55T, A58V, R63K, L101R, N105Y
# VL: B1 VL with L29I, H39E, S58N, T96S, T102M
# Tests used:
# [1] = target: T1, native γc proteins from human (Homo sapiens, UniProt P31785); assay: Binding to native human γc on transfected HEK-293 cells, flow cytometry; assay type: cell-based; conditions: FITC-labelled antibody 33 nM (5 μg/ml)
# T1 construct: transfected with plasmid expressing full length γc protein from human; expressed in transfected cells; host or cells: HEK-293
# T1 sequence (P31785 23-369): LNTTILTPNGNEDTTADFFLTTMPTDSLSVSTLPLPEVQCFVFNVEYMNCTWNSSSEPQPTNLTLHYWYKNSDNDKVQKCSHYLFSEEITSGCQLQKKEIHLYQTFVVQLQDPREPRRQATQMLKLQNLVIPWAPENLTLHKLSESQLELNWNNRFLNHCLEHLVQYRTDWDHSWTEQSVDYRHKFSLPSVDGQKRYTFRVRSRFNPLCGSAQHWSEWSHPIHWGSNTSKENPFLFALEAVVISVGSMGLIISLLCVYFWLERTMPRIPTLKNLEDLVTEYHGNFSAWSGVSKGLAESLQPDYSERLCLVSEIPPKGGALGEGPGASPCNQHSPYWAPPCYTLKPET
# Description: (§1) The binding specificities of humanized anti-γc antibodies to native γc proteins were further evaluated by […] binding assay. In brief, human HEK-293 cells were transfected with plasmid expressing full length γc protein from human, rhesus, cynomolgus or common marmoset. Two days later, transfected cells or non-transfected controls were incubated with FITC-conjugated hSM-05A on ice for an hour before analysis by flow cytometry.
# HaCaT cells [2] = assay: CDC assay on HaCaT cells with complement; assay type: cell-based, human; conditions: 33 nM (5 μg/ml), vs isotype antibody
# Description: (§2) γc expressing human keratinocyte HaCaT cell line was utilized as the target cells in ADCC and CDC assays. To determine the ADCC activity, HaCaT cell was pre-binded with anti-γc antibodies before co-culture with human PBMC. To determine the CDC activity, HaCaT cell was pre-binded with anti-γc antibodies before incubation with low-endotoxin complement proteins extracted from guinea pig. ADCC was determined by percentage of PI+ HaCaT cells in flow cytometry analysis while CDC was measured by the WST-8 proliferative assay of HaCaT cells in a 96-well plate (FIG. 22A).
# [3] = tested on: native γc proteins from common marmoset; assay: Binding to native common marmoset γc on transfected HEK-293 cells, flow cytometry; assay type: cell-based; conditions: FITC-labelled antibody 33 nM (5 μg/ml)
# native γc proteins from common marmoset, sequence (as listed by the source): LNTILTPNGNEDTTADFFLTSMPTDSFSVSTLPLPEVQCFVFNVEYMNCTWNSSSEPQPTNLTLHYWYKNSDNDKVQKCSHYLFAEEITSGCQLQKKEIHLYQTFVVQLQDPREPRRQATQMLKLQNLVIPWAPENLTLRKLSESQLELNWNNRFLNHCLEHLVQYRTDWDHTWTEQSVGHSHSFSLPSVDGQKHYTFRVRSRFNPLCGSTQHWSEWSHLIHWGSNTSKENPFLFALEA
# Description: as §1
# IL-7 induced p-STAT5 = assay: Suppression of p-STAT in PBMC, IL-7; assay type: cell-based, human; conditions: antibody 10 μg/ml, compared to isotype control
# Description: (§3) Given numbers refer to the percentage of inhibition compared to isotype control stimulated with respective γc cytokine. Antibody concentration is 10 μg/ml.
# HaCaT cells [4] = assay: ADCC assay on HaCaT cells with human PBMC; assay type: cell-based; conditions: 33 nM (5 μg/ml), vs isotype antibody
# Description: as §2
# Ramos B cells = assay: WST-8 proliferation assay, IL-4/IL-21 rescue of anti-IgM induced cell death; assay type: cell-based, human; conditions: humanized antibodies; 33 nM (5 μg/ml); vs ritlecitinib
# Description: The effects of anti-γc antibodies in blocking IL-4 and IL-21 rescues of Ramos cell death after anti-IgM induced hyperactivation were investigated by WST-8 proliferation assay. In brief, Ramos cells (50000 cells in 100 l) were seeded into 96-well plate and stabilized at 37° C. for an hour. Cells were pretreated in anti-γc antibodies or ritlecitinib for an hour, followed by incubation of IL-4 (10 ng/ml) or IL-21 (10 ng/ml) and anti-IgM (2 ug/ml, #109-006-129, Jackson ImmunoResearch). Aft er 48 hours, 10 μl WST-8 reagent (ab228554, Abcam) was added to each well and incubated for 4 hours.
# WST-8 could be reduced by cellular dehydrogenases to an orange formazan product, which the amount of formazan produced is directly proportional to the number of living Ramos cells. Optical density (OD) of each well was measured by absorbance at 450 nm using Varioskan LUX Multimode Microplate Reader (ThermoFisher Scientific).
# [5] = tested on: granzyme and IFNγ secretion; assay: Secretion of granzymes and IFNγ from PBMC culture, ELISA; assay type: cell-based, human; conditions: IL-2 or IL-15, 33 nM, humanized antibodies
# Description: Activation of T and NK cells in the PBMC culture could be studied by granzyme and IFNγ secretion [Carlin et al., Blood., 2005; 106 (12): 3874-9; Grossman et al., Blood., 2004; 104 (9): 2840-8; Keppel et al., J Immunol., 2015; 194 (4): 1954-1962; Tamang et al., Cytokine., 2006; 36 (3-4): 148-59]. Similar results are obtained in-house that IL-2 and IL-15 but not IL-21 could trigger secretion of granzyme A and IFNγ in PBMC culture (FIG. 15A-B).
# Antibodies or ritlecitinib were added into the PBMC culture to investigate their inhibitory effects in the presence of IL-2 or IL-15 treatment.
# Releases of cytolytic agents from PBMC culture were further evaluated by ELISA assays.
# IL-15 induced p-STAT5 = assay: Suppression of p-STAT in PBMC, IL-15; assay type: cell-based, human; conditions: antibody 10 μg/ml, compared to isotype control
# Description: as §3
# IL-4 induced p-STAT6 = assay: Suppression of p-STAT in PBMC, IL-4; assay type: cell-based, human; conditions: antibody 10 μg/ml, compared to isotype control
# Description: PBMC isolated from healthy individuals (iXCells Biotechnologies, San Diego, USA) is chosen as the primary immune cell culture to conclude the efficacies of anti-γc antibodies in the primary cells. As STAT phosphorylation could be triggered by the treatment of all six γc cytokines (except IL-9) in the PBMC culture (FIG. 12A-B), inhibition of p-STAT could be used as an indicator to confirm the efficacies of anti-γc antibodies.
# as §3
# [6] = tested on: CD127 internalization and degradation; assay: IL-7 induced CD127 internalization and degradation in HPB-ALL, flow cytometry; assay type: cell-based, human; conditions: humanized antibodies, 33 nM, vs ritlecitinib
# Description: Specific methods for IL-7 function were developed in HPB-ALL [Henriques et al., Blood., 2010; 115 (16): 3269-77]. IL-7 could trigger the internalization of its own receptor, CD127 (or IL-7Rai), into the cell compartment for degradation. As the CD127 degradation depends on the JAK3 activated status after IL-7 stimulation, blockade of γc binding to CD127 and downstream signaling pathway should stop CD127 internalization and degradation in HPB-ALL.
# After antibody or inhibitor pretreatment, HPB-ALL was challenged with 50 ng/ml IL-7 for 3 hours. Surface CD127 expression was performed in live cells while total CD127 expression was investigated in PFA fixed and permeabilized cells. Cells were stained with APC-conjugated CD127 antibody for flow cytometry analysis.
# [7] = tested on: IL-9 induced ERK phosphorylation; assay: Western blot of IL-9 induced ERK phosphorylation in Jurkat T cells; assay type: cell-based, human; conditions: humanized antibodies; 33 nM (5 μg/ml)
Molecule,binding to native human γc on HEK-293 [1],CDC activity (HaCaT cells [2]),binding to native common marmoset γc on HEK-293 [3],"IL-7 induced p-STAT5, percentage of inhibition (IL-7 induced p-STAT5) [%]",ADCC activity (HaCaT cells [4]),restimulation of anti-IgM induced cell death in presence of IL-4 or IL-21 (WST-8) (Ramos B cells),inhibition of IFNγ secretion [5],"IL-15 induced p-STAT5, percentage of inhibition (IL-15 induced p-STAT5) [%]","IL-4 induced p-STAT6, percentage of inhibition (IL-4 induced p-STAT6) [%]",suppression of IL-7 induced CD127 degradation [6],suppression of IL-9 induced ERK phosphorylation [7],suppression of granzyme B secretion [5]
B1,could bind to the native γc proteins from humans and common marmoset,could not induce any ADCC nor CDC activities,could bind to the native γc proteins from humans and common marmoset,94.17,could not induce any ADCC nor CDC activities,can restimulate anti-IgM induced cell death in a comparable level to ritlecitinib,comparable inhibition to IFNγ secretion to ritlecitinib,100,17.18,better suppression to IL-7 induced BCL-2 upregulation and CD127 degradation than ritlecitinib,better suppression to IL-9 induced ERK phosphorylation than hSM-05E,
B2,,could not induce any ADCC nor CDC activities,,66.02,could not induce any ADCC nor CDC activities,can restimulate anti-IgM induced cell death in a comparable level to ritlecitinib,only offered weak suppression to two agents,100,21.74,,,only offered weak suppression to two agents
